Laboratory results: US20240116985A1, “STAPLED PEPTIDES AND METHODS THEREOF” (priority 2020, published 2024)
Starred links: 1 amine or outer side, 2 acyl side, 3 side chain; linkers in the order of their positions; H or OH if unused. Positions of bridges follow the written chain, without caps; N, C: chain ends. Non-standard residues stand in square brackets, D forms with d. Primed or numbered codes have the meaning given here. *: point of attachment. PyrS2″ = (S)-3-amino-1-((pent-4-en-1-yloxy)carbonyl)pyrrolidine-3-carboxylic acid (stapling residue), C=CCCCOC(=O)N1CC[C@@](N[*:1])(C(=O)[*:2])C1; SeN″ = (S)-5-(((allyloxy)carbonyl)(methyl)amino)-2-amino-2-methylpentanoic acid (stapling residue), C=CCOC(=O)N(C)CCC[C@](C)(N[*:1])C(=O)[*:2]; B5(30) = 2-amino-2-(pent-4-en-1-yl)hept-6-enoic acid (2,2-bis(4-pentenyl)glycine, stitching residue), C=CCCCC(CCCC=C)(N[*:1])C(=O)[*:2]; B5(4) = 2,2-bis(4-pentenyl)glycine = 2-amino-2-(pent-4-en-1-yl)hept-6-enoic acid (stitching residue), C=CCCCC(CCCC=C)(N[*:1])C(=O)[*:2]; B5(5) = 2,2-bis(4-pentenyl)glycine, 2-amino-2-(pent-4-en-1-yl)hept-6-enoic acid (stitching residue), C=CCCCC(CCCC=C)(N[*:1])C(=O)[*:2]; TfeGA = (S)-2-amino-3-((carboxymethyl)(2,2,2-trifluoroethyl)amino)propanoic acid, O=C([C@H](CN(CC(=O)[*:3])CC(F)(F)F)N[*:1])[*:2]; (3C)TriAzdLys = (R)-2-amino-6-(4-propyl-1H-1,2,3-triazol-1-yl)hexanoic acid, CCCc1cn(CCCC[C@@H](N[*:1])C(=O)[*:2])nn1; B5(3) = 2,2-bis(4-pentenyl)glycine (stitching residue), C=CCCCC(CCCC=C)(N[*:1])C(=O)[*:2]; B5 = 2-amino-2-(pent-4-en-1-yl)hept-6-enoic acid, C=CCCCC(CCCC=C)(N[*:1])C(=O)[*:2]; Phe(3-CF3) = N[C@@H](Cc1cccc(C(F)(F)F)c1)C(=O)O; Phe(3-COOH) = N[C@@H](Cc1cccc(C(=O)O)c1)C(=O)O; Phe(2-CF3) = N[C@@H](Cc1ccccc1C(F)(F)F)C(=O)O; Phe(2-Cl) = N[C@@H](Cc1ccccc1Cl)C(=O)O; Phe(3-F) = N[C@@H](Cc1cccc(F)c1)C(=O)O; Phe(3-Me) = Cc1cccc(C[C@H](N)C(=O)O)c1; 1Nal = N[C@@H](Cc1cccc2ccccc12)C(=O)O; 2Nal = N[C@@H](Cc1ccc2ccccc2c1)C(=O)O; Ala(cPent) = N[C@@H](CC1CCCC1)C(=O)O; Bta = N[C@@H](Cc1csc2ccccc12)C(=O)O; Lys(iPr) = CC(C)NCCCC[C@H](N)C(=O)O; αAllylPro = C=CC[C@@]1(C(=O)O)CCCN1; tBuAla = CC(C)(C)C[C@H](N)C(=O)O; 2Pal = N[C@@H](Cc1ccccn1)C(=O)O; 2Thi = N[C@@H](Cc1cccs1)C(=O)O; 3Thi = N[C@@H](Cc1ccsc1)C(=O)O; Cha = N[C@@H](CC1CCCCC1)C(=O)O; S8 = C=CCCCCCC[C@](C)(N)C(=O)O; Butoxycarbonyl = CCCCOC(=O)*; hSer = N[C@@H](CCO)C(=O)O; Nle = CCCC[C@H](N)C(=O)O

Tests used:
[1] = target: full-length beta-Catenin (Uniprot ID P35222) (Homo sapiens (Human)) (UniProt P35222); assay: fluorescence polarization competition; 10 nM full-length beta-catenin + 10 nM 5FAM-TCF4(10-53) probe, peptide titrated 10 uM to 5 nM
Target sequence in this assay (P35222 2-781 limits assumed): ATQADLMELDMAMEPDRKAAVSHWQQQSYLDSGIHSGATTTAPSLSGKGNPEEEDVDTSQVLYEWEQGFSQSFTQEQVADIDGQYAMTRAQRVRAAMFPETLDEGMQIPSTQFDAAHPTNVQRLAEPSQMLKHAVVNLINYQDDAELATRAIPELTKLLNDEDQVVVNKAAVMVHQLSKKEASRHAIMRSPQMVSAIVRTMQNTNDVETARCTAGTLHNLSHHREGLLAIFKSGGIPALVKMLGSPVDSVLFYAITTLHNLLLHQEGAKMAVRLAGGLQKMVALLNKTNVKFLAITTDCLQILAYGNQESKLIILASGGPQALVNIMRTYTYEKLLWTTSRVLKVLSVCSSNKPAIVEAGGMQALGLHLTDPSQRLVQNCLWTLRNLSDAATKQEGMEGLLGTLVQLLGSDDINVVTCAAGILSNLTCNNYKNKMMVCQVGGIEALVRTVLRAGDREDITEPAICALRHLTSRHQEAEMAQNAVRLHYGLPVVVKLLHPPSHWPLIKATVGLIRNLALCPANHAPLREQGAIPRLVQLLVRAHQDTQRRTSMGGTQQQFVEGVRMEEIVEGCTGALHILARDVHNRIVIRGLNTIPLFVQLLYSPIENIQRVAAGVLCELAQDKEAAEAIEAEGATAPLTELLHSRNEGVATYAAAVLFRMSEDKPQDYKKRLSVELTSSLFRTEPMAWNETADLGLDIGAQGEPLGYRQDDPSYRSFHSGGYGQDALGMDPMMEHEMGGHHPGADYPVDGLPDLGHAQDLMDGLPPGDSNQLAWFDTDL

[2] = target: full-length beta-Catenin (Uniprot ID P35222) (Homo sapiens (Human)) (UniProt P35222); assay: fluorescence polarization competition; full-length beta-catenin, 5FAM-TCF4(10-53) probe displaced
Target sequence in this assay (P35222 whole entry, the tested form may be a part): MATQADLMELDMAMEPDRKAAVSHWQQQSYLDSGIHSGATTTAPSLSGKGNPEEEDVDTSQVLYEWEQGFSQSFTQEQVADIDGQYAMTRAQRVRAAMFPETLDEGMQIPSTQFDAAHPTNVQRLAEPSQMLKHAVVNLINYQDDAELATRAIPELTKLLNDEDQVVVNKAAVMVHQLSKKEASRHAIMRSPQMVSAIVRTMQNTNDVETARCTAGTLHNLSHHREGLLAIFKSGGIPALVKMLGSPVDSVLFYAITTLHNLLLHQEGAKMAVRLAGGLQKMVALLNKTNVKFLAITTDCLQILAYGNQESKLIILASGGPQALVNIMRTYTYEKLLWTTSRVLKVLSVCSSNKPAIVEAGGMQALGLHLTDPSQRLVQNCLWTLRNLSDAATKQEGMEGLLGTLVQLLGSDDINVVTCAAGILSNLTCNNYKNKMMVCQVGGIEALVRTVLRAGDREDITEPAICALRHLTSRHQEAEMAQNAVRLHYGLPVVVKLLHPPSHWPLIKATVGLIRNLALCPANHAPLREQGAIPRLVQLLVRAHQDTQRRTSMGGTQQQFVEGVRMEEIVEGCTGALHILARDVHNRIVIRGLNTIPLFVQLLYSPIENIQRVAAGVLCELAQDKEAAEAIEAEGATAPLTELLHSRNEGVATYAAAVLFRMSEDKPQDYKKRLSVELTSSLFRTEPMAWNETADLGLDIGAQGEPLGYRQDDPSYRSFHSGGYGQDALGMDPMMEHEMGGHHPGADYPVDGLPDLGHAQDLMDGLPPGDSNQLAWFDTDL

[3] = target: full-length beta-Catenin (Uniprot ID P35222) (Homo sapiens (Human)) (UniProt P35222); assay: fluorescence polarization competition; 10 nM full-length beta-catenin, competitor 10 nM 5FAM-TCF4(10-53)
Target sequence in this assay (P35222 whole entry, the tested form may be a part): as above

[4] = target: full-length beta-Catenin (Uniprot ID P35222) (Homo sapiens (Human)) (UniProt P35222); assay: fluorescence polarization competition; full-length beta-catenin with 5FAM-labeled TCF4 (residues 10-53) probe as competitor
Target sequence in this assay (P35222 whole entry, the tested form may be a part): as above

[5] = target: full-length beta-Catenin (Uniprot ID P35222) (Homo sapiens (Human)) (UniProt P35222); assay: fluorescence polarization competition; 10 nM full-length beta-catenin + 10 nM 5FAM-TCF4(10-53) probe, peptide titrated
Target sequence in this assay (P35222 2-781 limits assumed): as the sequence (P35222 2-781 limits assumed) above

[6] = target: full-length beta-Catenin (Uniprot ID P35222) (Homo sapiens (Human)) (UniProt P35222); assay: fluorescence polarization competition against 5FAM-TCF4(10-53), full-length beta-catenin
Target sequence in this assay (P35222 whole entry, the tested form may be a part): as the sequence (P35222 whole entry, the tested form may be a part) above

[7] = target: full-length beta-Catenin (Uniprot ID P35222) (Homo sapiens (Human)) (UniProt P35222); assay: fluorescence polarization competition against 5FAM-TCF4(10-53) on full-length beta-catenin
Target sequence in this assay (P35222 whole entry, the tested form may be a part): as above

[8] = target: full-length beta-Catenin (Uniprot ID P35222) (Homo sapiens (Human)) (UniProt P35222); assay: fluorescence polarization competition; full-length beta-catenin + 5FAM-TCF4(10-53) probe
Target sequence in this assay (P35222 whole entry, the tested form may be a part): as above

IC50 [2] [nM]	IC50 [4] [nM]	Binder	also measured
–	–	Ac-[αAllylPro][hSer][tBuAla][B5(5)]DQAAFL[PyrS2″]F[Bta]Q-NH2 (staple 1-4, 4-11) [I-2443]	IC50 [1]: 6670 nM
14	–	Ac-[αAllylPro]N[tBuAla][B5(3)]DDAAFL[PyrS2″][3Thi][Bta]Q-NH2 (staple 1-4, 4-11) [Ac-PL3-Asn-Npg-B5-Asp-Asp-Ala-Ala-Phe-Leu-PyrS2-3Thi-BztA-Gln-NH2]	–
–	–	Ac-[αAllylPro]N[tBuAla][B5(5)]DHAAFL[PyrS2″]F[Bta]Q-NH2 (staple 1-4, 4-11) [I-2442]	IC50 [1]: 282 nM
–	5000	Ac-[αAllylPro]DA[B5]DEAA[Ala(cPent)]V[S8]F[Bta]Q-NH2 (staple 1-4, 4-11) [I-392]	EC50 [3]: 5000 nM
479	–	Ac-[αAllylPro]D[tBuAla][B5(5)]SDAAFL[PyrS2″][3Thi][Bta]Q-NH2 (staple 1-4, 4-11) [Ac-PL3-Asp-Npg-B5-Ser-Asp-Ala-Ala-Phe-Leu-PyrS2-3Thi-BztA-Gln-NH2]	–
–	3820	Ac-[αAllylPro]DA[B5(3)]D[TfeGA]AA[Phe(3-Me)]Q[SeN″][Phe(3-F)][Bta]Q-NH2 (staple 1-4, 4-11) [I-405]	EC50 [5]: 3820 nM
8660	–	Ac-[αAllylPro]D[tBuAla][B5(5)]LDAAFN[PyrS2″][3Thi][Bta]Q-NH2 (staple 1-4, 4-11) [Ac-PL3-Asp-Npg-B5-Leu-Asp-Ala-Ala-Phe-Asn-PyrS2-3Thi-BztA-Gln-NH2]	–
116	–	Ac-[αAllylPro]D[tBuAla][B5(5)][hSer]DAAFN[PyrS2″][3Thi][Bta]Q-NH2 (staple 1-4, 4-11) [Ac-PL3-Asp-Npg-B5-Hse-Asp-Ala-Ala-Phe-Asn-PyrS2-3Thi-BztA-Gln-NH2]	–
–	1850	Ac-[αAllylPro]DA[B5(4)]D[TfeGA]AA[Phe(3-Me)]Q[S8][Phe(3-F)][Bta]Q-NH2 (staple 1-4, 4-11) [I-404]	EC50 [5]: 1850 nM
–	–	Butoxycarbonyl-[αAllylPro]D[tBuAla][B5(4)]D[Phe(3-COOH)]AAFL[PyrS2″][Phe(2-Cl)][Bta]A-NH2 (staple 1-4, 4-11) [I-2304]	IC50 [6]: 511 nM
–	–	Ac-[αAllylPro]D[tBuAla][B5(3)]DTAAFT[PyrS2″][2Nal][Bta]S-NH2 (staple 1-4; staple 4-11 (inferred); not fully specified; printed as Ac-PL3-Asp-Npg-B5-Asp-Thr-Ala-Ala-Phe-Thr-PyrS2-2NapA-BztA-Ser-NH2) [I-1270]	IC50 [7]: 3700 nM; EC50 [8]: 3700 nM
40	–	Ac-[αAllylPro]D[tBuAla][B5(3)]NDAAFL[PyrS2″][3Thi][Bta]Q-NH2 (staple 1-4, 4-11) [Ac-PL3-Asp-Npg-B5-Asn-Asp-Ala-Ala-Phe-Leu-PyrS2-3Thi-BztA-Gln-NH2]	–
349	–	Ac-[αAllylPro]D[tBuAla][B5(5)]SDAAFN[PyrS2″][3Thi][Bta]Q-NH2 (staple 1-4, 4-11) [Ac-PL3-Asp-Npg-B5-Ser-Asp-Ala-Ala-Phe-Asn-PyrS2-3Thi-BztA-Gln-NH2]	–
56	–	Ac-[αAllylPro]D[tBuAla][B5(5)]QDAAFN[PyrS2″][3Thi][Bta]Q-NH2 (staple 1-4, 4-11) [Ac-PL3-Asp-Npg-B5-Gln-Asp-Ala-Ala-Phe-Asn-PyrS2-3Thi-BztA-Gln-NH2]	–
–	–	Ac-[αAllylPro]D[tBuAla][B5(30)]D[Phe(3-COOH)]AAFL[PyrS2″][Phe(2-CF3)][Bta]S[(3C)TriAzdLys]-NH2 (staple 1-4, 4-11; not fully specified; printed as Ac-PL3-Asp-Npg-B5-Asp-3COOHF-Ala-Ala-Phe-Leu-PyrS2-2F3MeF-BztA-Ser-[3C]TriAzdLys-NH2) [I-2444]	IC50 [1]: 121 nM
–	189	Ac-[αAllylPro]D[Nle][B5(3)]DEAAFA[S8]F[Bta]Q-NH2 (staple 1-4, 4-11) [I-411]	EC50 [5]: 189 nM
32	–	Ac-[αAllylPro]D[tBuAla][B5(3)]NDAAFN[PyrS2″][3Thi][Bta]Q-NH2 (staple 1-4, 4-11) [Ac-PL3-Asp-Npg-B5-Asn-Asp-Ala-Ala-Phe-Asn-PyrS2-3Thi-BztA-Gln-NH2]	–

IC50 [2] [nM]	IC50 [4] [nM]	Binder	also measured
305	–	Ac-[αAllylPro]Q[tBuAla][B5(5)]DDAAFL[PyrS2″][3Thi][Bta]Q-NH2 (staple 1-4, 4-11) [Ac-PL3-Gln-Npg-B5-Asp-Asp-Ala-Ala-Phe-Leu-PyrS2-3Thi-BztA-Gln-NH2]	–
–	–	Ac-[αAllylPro]D[tBuAla][B5(3)]DTAAFT[PyrS2″][Phe(3-CF3)][Bta]S-NH2 (staple 1-4; staple 4-11 (inferred); not fully specified; printed as Ac-PL3-Asp-Npg-B5-Asp-Thr-Ala-Ala-Phe-Thr-PyrS2-3F3MeF-BztA-Ser-NH2) [I-1271]	IC50 [7]: 682 nM; EC50 [8]: 682 nM
–	–	Ac-[αAllylPro]D[tBuAla][B5(3)]DTAAFT[PyrS2″]F[1Nal]S-NH2 (staple 1-4; staple 4-11 (inferred); not fully specified; printed as Ac-PL3-Asp-Npg-B5-Asp-Thr-Ala-Ala-Phe-Thr-PyrS2-Phe-1NapA-Ser-NH2) [I-1272]	IC50 [7]: 331 nM; EC50 [8]: 331 nM
115	–	Ac-[αAllylPro]D[tBuAla][B5(5)]QDAAFL[PyrS2″][3Thi][Bta]Q-NH2 (staple 1-4, 4-11) [Ac-PL3-Asp-Npg-B5-Gln-Asp-Ala-Ala-Phe-Leu-PyrS2-3Thi-BztA-Gln-NH2]	–
–	120	Ac-[αAllylPro]DI[B5(3)]DEAAFQ[S8]F[Bta]-NH2 (staple 1-4, 4-11; also: staple isomer composition, earlier eluting HPLC peak) [I-408]	EC50 [5]: 120 nM
216	–	Ac-[αAllylPro]D[tBuAla][B5(5)][hSer]DAAFL[PyrS2″][3Thi][Bta]Q-NH2 (staple 1-4, 4-11) [Ac-PL3-Asp-Npg-B5-Hse-Asp-Ala-Ala-Phe-Leu-PyrS2-3Thi-BztA-Gln-NH2]	–
389	–	Ac-[αAllylPro]Q[tBuAla][B5(5)]DDAAFN[PyrS2″][3Thi][Bta]Q-NH2 (staple 1-4, 4-11) [Ac-PL3-Gln-Npg-B5-Asp-Asp-Ala-Ala-Phe-Asn-PyrS2-3Thi-BztA-Gln-NH2]	–
511	–	Ac-[αAllylPro]S[tBuAla][B5(5)]DDAAFN[PyrS2″][3Thi][Bta]Q-NH2 (staple 1-4, 4-11) [Ac-PL3-Ser-Npg-B5-Asp-Asp-Ala-Ala-Phe-Asn-PyrS2-3Thi-BztA-Gln-NH2]	–
–	5000	Ac-[αAllylPro]DA[B5(4)]D[2Thi]AAFV[S8][Phe(3-F)][Bta]Q-NH2 (staple 1-4, 4-11) [I-402]	EC50 [5]: 5000 nM
–	–	Ac-[αAllylPro]N[Cha][B5(5)]DQ[Lys(iPr)]AFL[PyrS2″][3Thi][Bta]Q-NH2 (staple 1-4, 4-11; not fully specified; printed as Ac-PL3-Asn-Cha-B5-Asp-Gln-iPrLys-Ala-Phe-Leu-PyrS2-3Thi-BztA-Gln-NH2) [I-2446]	IC50 [1]: 93 nM
–	70	Ac-[αAllylPro]DI[B5(3)]DEAAFQ[S8]F[Bta]-NH2 (staple 1-4, 4-11; also: staple isomer composition, later eluting HPLC peak) [I-409]	EC50 [5]: 70 nM
–	2620	Ac-[αAllylPro]DA[B5]DEAA[2Pal]V[S8]F[Bta]Q-NH2 (staple 1-4, 4-11; also: later eluting staple isomer) [I-387]	EC50 [3]: 2620 nM
–	1950	Ac-[αAllylPro]DA[B5]DEAAFV[S8][Ala(cPent)][Bta]Q-NH2 (staple 1-4, 4-11) [I-393]	EC50 [3]: 1950 nM
550	–	Ac-[αAllylPro]S[tBuAla][B5(5)]DDAAFL[PyrS2″][3Thi][Bta]Q-NH2 (staple 1-4, 4-11) [Ac-PL3-Ser-Npg-B5-Asp-Asp-Ala-Ala-Phe-Leu-PyrS2-3Thi-BztA-Gln-NH2]	–
–	134	Ac-[αAllylPro]DA[B5(4)]DEAA[2Thi]Q[S8][Phe(3-F)][Bta]Q-NH2 (staple 1-4, 4-11) [I-401]	EC50 [5]: 134 nM
–	5000	Ac-[αAllylPro]DA[B5(4)]DEAAFV[S8][Phe(3-Me)][Bta]Q-NH2 (staple 1-4, 4-11) [I-395]	EC50 [3]: 5000 nM
